Experimental data as given in US20240148894A1, “USE OF ANTIBODY-DRUG CONJUGATE TARGETING HER2 IN TREATMENT OF SPECIFIC BREAST CANCER” (priority 2021, published 2024).
Where “and” joins values, the source holds several entries; their conditions need not be identical. Equal entries are not always repeated. Entries after “also recorded” stand apart in the source; their conditions may differ.

System: HER2-positive (IHC 3+ or FISH +) locally advanced or metastatic breast cancer
Experiment: Parallel-group, randomized, open-label clinical trial; progression-free survival (PFS), ITT and metastatic-site subgroup analyses
Assay type: in vivo, human
Description: This study was a parallel-group, randomized, open-label clinical trial to evaluate the efficacy and safety of Disitamab vedotin as compared to treatment with lapatinib and capecitabine in patients with HER2-positive (positive being defined as IHC 3+ or FISH +) locally advanced or metastatic breast cancer. Subjects were randomized 1:1.
The primary endpoint indicator of the study was PFS (progression-free survival), which was evaluated for 6 weeks (±7 days).
Disitamab vedotin, namely RC48-ADC (average DAR value: 4±0.5), was administered at a dose of 2.0 mg/kg via intravenous drip, once every 2 weeks, 42 days as one treatment cycle.

[1] = overall ITT, RC48-ADC relative to capecitabine+lapatinib

B1: Disitamab vedotin (conjugate, chains of the INN, looked up)
VH: EVQLVQSGAEVKKPGATVKISCKVSGYTFTDYYIHWVQQAPGKGLEWMGRVNPDHGDSYYNQKFKDKATITADKSTDTAYMELSSLRSEDTAVYFCARNYLFDHWGQGTLVTVSS
VL: DIQMTQSPSSVSASVGDRVTITCKASQDVGTAVAWYQQKPGKAPKLLIYWASIRHTGVPSRFSGSGSGTDFTLTISSLQPEDFATYYCHQFATYTFGGGTKVEIK
modifications: vedotin (MMAE) payload
Disease progression or death, % (Bone metastasis: No (N=63 vs 68), ITT): 63.5%
Censoring, % (Bone metastasis: No, ITT): 36.5%
Progression-free survival time, Median (95% CI) (Bone metastasis: No, ITT, Kaplan-Meier): 9.6 months and 9.6 (6.9, 13.1) months
COX proportional hazards model (without considering stratification factors) Hazard ratio (95% CI) (Bone metastasis: No, RC48-ADC relative to capecitabine+lapatinib): 0.76 (0.50, 1.15)
Disease progression or death, % (Bone metastasis: Yes (N=36 vs 33), ITT): 77.8%
Censoring, % (Bone metastasis: Yes, ITT): 22.2%
Progression-free survival time, Median (95% CI) (Bone metastasis: Yes, ITT, Kaplan-Meier): 7.8 months and 7.8 (2.8, 12.4) months
COX proportional hazards model (without considering stratification factors) Hazard ratio (95% CI) (Bone metastasis: Yes, RC48-ADC relative to capecitabine+lapatinib): 0.95 (0.56, 1.61)
Disease progression or death, % (Liver metastasis: No (N=61 vs 58), ITT): 75.4%
Censoring, % (Liver metastasis: No, ITT): 24.6%
Progression-free survival time, Median (95% CI) (Liver metastasis: No, ITT, Kaplan-Meier): 7.0 months and 7.0 (5.5, 9.9) months
COX proportional hazards model (without considering stratification factors) Hazard ratio (95% CI) (Liver metastasis: No, RC48-ADC relative to capecitabine+lapatinib): 1.26 (0.83, 1.91)
Disease progression or death, % (Liver metastasis: Yes (N=38 vs 43), ITT): 57.9%
Censoring, % (Liver metastasis: Yes, ITT): 42.1%
Progression-free survival time, Median (95% CI) (Liver metastasis: Yes, ITT, Kaplan-Meier): 12.5 months and 12.5 (7.1, 14.1) months
COX proportional hazards model (without considering stratification factors) Hazard ratio (95% CI) (Liver metastasis: Yes, RC48-ADC relative to capecitabine+lapatinib): 0.41 (0.24, 0.71)
Disease progression or death, % (Lung metastasis: No (N=55 vs 49), ITT): 61.8%
Censoring, % (Lung metastasis: No, ITT): 38.2%
Progression-free survival time, Median (95% CI) (Lung metastasis: No, ITT, Kaplan-Meier): 10.9 months and 10.9 (5.7, 13.7) months
COX proportional hazards model (without considering stratification factors) Hazard ratio (95% CI) (Lung metastasis: No, RC48-ADC relative to capecitabine+lapatinib): 0.68 (0.42, 1.07)
Disease progression or death, % (Lung metastasis: Yes (N=44 vs 52), ITT): 77.3%
Censoring, % (Lung metastasis: Yes, ITT): 22.7%
Progression-free survival time, Median (95% CI) (Lung metastasis: Yes, ITT, Kaplan-Meier): 8.2 months and 8.2 (5.6, 12.2) months
COX proportional hazards model (without considering stratification factors) Hazard ratio (95% CI) (Lung metastasis: Yes, RC48-ADC relative to capecitabine+lapatinib): 1.05 (0.67, 1.65)
Disease progression or death, % (Viscera metastasis (CRF): No (N=22 vs 23), ITT): 68.2%
Censoring, % (Viscera metastasis (CRF): No, ITT): 31.8%
Progression-free survival time, Median (95% CI) (Viscera metastasis (CRF): No, ITT, Kaplan-Meier): 9.6 months and 9.6 (4.3, 14.2) months
Disease progression or death, % (Viscera metastasis (CRF): Yes (N=77 vs 78), ITT): 68.8%
Censoring, % (Viscera metastasis (CRF): Yes, ITT): 31.2%
Progression-free survival time, Median (95% CI) (Viscera metastasis (CRF): Yes, ITT, Kaplan-Meier): 9.3 months and 9.3 (6.9, 12.2) months
relative risk reduction of disease progression or death (Viscera metastasis: No (as printed in Table 7), vs capecitabine+lapatinib): 24% chance of
COX proportional hazards model (without considering stratification factors) Hazard ratio (95% CI) (Viscera metastasis: No, RC48-ADC relative to capecitabine+lapatinib): 1.02 (0.51, 2.05)
COX proportional hazards model (without considering stratification factors) Hazard ratio (95% CI) (Viscera metastasis: Yes, RC48-ADC relative to capecitabine+lapatinib): 0.76 (0.53, 1.10)
COX proportional hazards model (considering stratification factors) Hazard ratio (95% CI) [1]: 0.82 (0.59, 1.13)
COX proportional hazards model (without considering stratification factors) Hazard ratio (95% CI) [1]: 0.82 (0.60, 1.14)
PFS comparison with control group, in words (overall sample of breast cancer patients): did not show a statistically significant advantage
Censoring, % (overall, ITT analysis set): 31.3%
Disease progression or death, % (overall, ITT analysis set (N=99 vs 101)): 68.7%
Progression-free survival, Median (95% CI) (overall, ITT analysis set, Kaplan-Meier): 9.3 months and 9.3 (6.9, 12.2) months
PFS comparison with control group, in words (patients with bone metastasis): no very significant difference; also recorded: no statistically significant difference
median progression-free survival time longer than control treatment group by (patients with liver metastasis, vs capecitabine+lapatinib): 6.9 months
PFS comparison with control group, in words (patients with lung metastasis): no significant difference
progression-free survival time shorter than capecitabine+lapatinib by (patients with lung metastasis): 0.1 months
PFS comparison with control group, in words (patients with viscera metastasis): did not show statistical differences; also recorded: no statistically significant difference
median progression-free survival time longer than control treatment group by (patients with viscera metastasis, vs lapatinib+capecitabine): 2.4 months
PFS comparison with control group, in words (patients without bone metastasis): did not show a statistically significant advantage; also recorded: no very significant difference; also recorded: no statistically significant difference
relative risk reduction of disease progression or death (patients without bone metastasis, vs capecitabine+lapatinib): 24% chance of
median progression-free survival time longer than control treatment group by (patients without bone metastasis, vs lapatinib+capecitabine): 1.6 months
median progression-free survival time shorter than control treatment group by (patients without liver metastasis, vs capecitabine+lapatinib): 2.0 months
median progression-free survival time longer than control treatment group by (patients without lung metastasis, vs capecitabine+lapatinib): 5.3 months
PFS comparison with control group, in words (patients without viscera metastasis): did not show a statistically significant advantage; also recorded: no statistical difference; also recorded: no statistically significant difference
median progression-free survival time longer than control treatment group by (patients without viscera metastasis, vs lapatinib+capecitabine): 1.5 months
